This note sets out measurements from US20070078102A1, “NF-kB oligonucleotide decoy molecules” (published 2007).

Sequences and labels used below:
B1: decoy 227 H-V (dsDNA)
DNA 1: TCGGATTTCCTC
DNA 2: GAGGAAATCCGA
B2: decoy 279 E-Z A->C EVEN (dsDNA)
DNA 1: TTGCGGACTTTCCAGGC
DNA 2: GCCTGGAAAGTCCGCAA
B3: 153/154 H5/H5 (dsDNA)
DNA 1: AGTTGAGGACTTTCCAGGC
DNA 2: GCCTGGAAAGTCCTCAACT
modifications: PS at the 5 3'-most linkages of each strand
B4: decoy 151 D-Z (dsDNA)
DNA 1: AGTTGAGGGATTTCCAGGC
DNA 2: GCCTGGAAATCCCTCAACT
B5: decoy 177 E-W (dsDNA)
DNA 1: CTCGGACTTTCCTGT
DNA 2: ACAGGAAAGTCCGAG
B6: 153/154 PO/PS (dsDNA)
DNA 1: AGTTGAGGACTTTCCAGGC
DNA 2: GCCTGGAAAGTCCTCAACT
modifications: strand 153 PO; strand 154 full PS
B7: 153/154 PO/H5 (dsDNA)
DNA 1: AGTTGAGGACTTTCCAGGC
DNA 2: GCCTGGAAAGTCCTCAACT
modifications: strand 153 PO; strand 154 PS at the 5 3'-most linkages
B8: decoy 197 C-W (dsDNA)
DNA 1: CTCGGGGACTTTCCCTGT
DNA 2: ACAGGGAAAGTCCCCGAG
B9: 153/154 H5/PO (dsDNA)
DNA 1: AGTTGAGGACTTTCCAGGC
DNA 2: GCCTGGAAAGTCCTCAACT
modifications: strand 153 PS at the 5 3'-most linkages; strand 154 PO
B10: 153/154 H11/H11 (dsDNA)
DNA 1: AGTTGAGGACTTTCCAGGC
DNA 2: GCCTGGAAAGTCCTCAACT
modifications: PS at the 11 3'-most linkages of each strand
B11: decoy 153/154 E-Z (dsDNA)
DNA 1: AGTTGAGGACTTTCCAGGC
DNA 2: GCCTGGAAAGTCCTCAACT
B12: decoy 129 D-V (dsDNA)
DNA 1: TCGGGATTTCCTC
DNA 2: GAGGAAATCCCGA
B13: 153/154 PS/PO (dsDNA)
DNA 1: AGTTGAGGACTTTCCAGGC
DNA 2: GCCTGGAAAGTCCTCAACT
modifications: strand 153 full PS; strand 154 PO
B14: 153/154 H10/H10 (dsDNA)
DNA 1: AGTTGAGGACTTTCCAGGC
DNA 2: GCCTGGAAAGTCCTCAACT
modifications: PS at the 10 3'-most linkages of each strand
B15: decoy 173 E-Z-4 (dsDNA)
DNA 1: TTGAGGACTTTCCAG
DNA 2: CTGGAAAGTCCTCAA
B16: decoy 265 I-Z (dsDNA)
DNA 1: AGTTGAGGATTTCCCAGGC
DNA 2: GCCTGGGAAATCCTCAACT
B17: 153/154 PS/PS (dsDNA)
DNA 1: AGTTGAGGACTTTCCAGGC
DNA 2: GCCTGGAAAGTCCTCAACT
modifications: full PS, both strands
B18: 153/154 H8/H10 (dsDNA)
DNA 1: AGTTGAGGACTTTCCAGGC
DNA 2: GCCTGGAAAGTCCTCAACT
modifications: PS at the 8 (153) and 10 (154) 3'-most linkages
B19: 153/154 PO (dsDNA)
DNA 1: AGTTGAGGACTTTCCAGGC
DNA 2: GCCTGGAAAGTCCTCAACT
modifications: full phosphodiester, both strands
B20: 153/154 H9/H9 (dsDNA)
DNA 1: AGTTGAGGACTTTCCAGGC
DNA 2: GCCTGGAAAGTCCTCAACT
modifications: PS at the 9 3'-most linkages of each strand
B21: 153/154 H7/H7 (dsDNA)
DNA 1: AGTTGAGGACTTTCCAGGC
DNA 2: GCCTGGAAAGTCCTCAACT
modifications: PS at the 7 3'-most linkages of each strand
B22: 153/154 H6/H6 (dsDNA)
DNA 1: AGTTGAGGACTTTCCAGGC
DNA 2: GCCTGGAAAGTCCTCAACT
modifications: PS at the 6 3'-most linkages of each strand
B23: decoy 309 M-T (dsDNA)
DNA 1: CCTTGAAGGGATTTCCCTCC
DNA 2: GGAGGGAAATCCCTTCAAGG
B24: 153/154 H11/PO (dsDNA)
DNA 1: AGTTGAGGACTTTCCAGGC
DNA 2: GCCTGGAAAGTCCTCAACT
modifications: strand 153 PS at the 11 3'-most linkages; strand 154 PO
B25: decoy 235 L-V (dsDNA)
DNA 1: TCGGACTTTCCCTC
DNA 2: GAGGGAAAGTCCGA
B26: 153/154 H4/H4 (dsDNA)
DNA 1: AGTTGAGGACTTTCCAGGC
DNA 2: GCCTGGAAAGTCCTCAACT
modifications: PS at the 4 3'-most linkages of each strand
B27: 153/154 PO/H11 (dsDNA)
DNA 1: AGTTGAGGACTTTCCAGGC
DNA 2: GCCTGGAAAGTCCTCAACT
modifications: strand 153 PO; strand 154 PS at the 11 3'-most linkages
B28: decoy 281 E-Z EVEN (dsDNA)
DNA 1: TTGAGGACTTTCCAGGC
DNA 2: GCCTGGAAAGTCCTCAA
B29: 153/154 H10/H8 (dsDNA)
DNA 1: AGTTGAGGACTTTCCAGGC
DNA 2: GCCTGGAAAGTCCTCAACT
modifications: PS at the 10 (153) and 8 (154) 3'-most linkages
B30: decoy 289 (dsDNA)
DNA 1: TGAGGACTTTCCAGGC
DNA 2: GCCTGGAAAGTCCTCA
B31: decoy 263 H-Z (dsDNA)
DNA 1: AGTTGAGGATTTCCAGGC
DNA 2: GCCTGGAAATCCTCAACT
B32: decoy 117 E-U (dsDNA)
DNA 1: ATGGACTTTCCGT
DNA 2: ACGGAAAGTCCAT
B33: decoy 295 (dsDNA)
DNA 1: TGAGGACTTTCCAGGCTC
DNA 2: GAGCCTGGAAAGTCCTCA
B34: 153/154 H3/H3 (dsDNA)
DNA 1: AGTTGAGGACTTTCCAGGC
DNA 2: GCCTGGAAAGTCCTCAACT
modifications: PS at the 3 3'-most linkages of each strand
B35: 153/154 H8/H8 (dsDNA)
DNA 1: AGTTGAGGACTTTCCAGGC
DNA 2: GCCTGGAAAGTCCTCAACT
modifications: PS at the 8 3'-most linkages of each strand
B36: decoy 123 A-W (dsDNA)
DNA 1: CTCGGGACTTTCCTGT
DNA 2: ACAGGAAAGTCCCGAG
B37: decoy 141 A-Z-2 (dsDNA)
DNA 1: GTTGAGGGACTTTCCAGG
DNA 2: CCTGGAAAGTCCCTCAAC

Chain of NF-kB p65/p50 heterodimer (RelA/NFKB1) (Q04206 whole entry, chain 1 of 2): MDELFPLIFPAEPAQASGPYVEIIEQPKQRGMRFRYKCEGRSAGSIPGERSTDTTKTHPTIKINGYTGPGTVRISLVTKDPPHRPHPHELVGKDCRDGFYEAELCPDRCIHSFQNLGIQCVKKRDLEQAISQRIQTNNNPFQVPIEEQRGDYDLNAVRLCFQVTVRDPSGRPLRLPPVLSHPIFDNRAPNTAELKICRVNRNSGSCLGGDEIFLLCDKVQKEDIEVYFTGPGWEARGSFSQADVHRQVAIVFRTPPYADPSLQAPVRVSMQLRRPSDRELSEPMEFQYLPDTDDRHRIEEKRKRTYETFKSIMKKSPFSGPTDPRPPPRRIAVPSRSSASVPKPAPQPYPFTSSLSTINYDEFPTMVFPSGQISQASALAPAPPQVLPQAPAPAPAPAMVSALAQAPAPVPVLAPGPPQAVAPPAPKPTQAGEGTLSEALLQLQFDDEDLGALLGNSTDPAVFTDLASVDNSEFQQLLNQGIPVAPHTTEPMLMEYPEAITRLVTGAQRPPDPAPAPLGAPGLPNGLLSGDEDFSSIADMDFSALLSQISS
Chain of NF-kB p65/p50 heterodimer (RelA/NFKB1) (P19838 1-433, chain 2 of 2): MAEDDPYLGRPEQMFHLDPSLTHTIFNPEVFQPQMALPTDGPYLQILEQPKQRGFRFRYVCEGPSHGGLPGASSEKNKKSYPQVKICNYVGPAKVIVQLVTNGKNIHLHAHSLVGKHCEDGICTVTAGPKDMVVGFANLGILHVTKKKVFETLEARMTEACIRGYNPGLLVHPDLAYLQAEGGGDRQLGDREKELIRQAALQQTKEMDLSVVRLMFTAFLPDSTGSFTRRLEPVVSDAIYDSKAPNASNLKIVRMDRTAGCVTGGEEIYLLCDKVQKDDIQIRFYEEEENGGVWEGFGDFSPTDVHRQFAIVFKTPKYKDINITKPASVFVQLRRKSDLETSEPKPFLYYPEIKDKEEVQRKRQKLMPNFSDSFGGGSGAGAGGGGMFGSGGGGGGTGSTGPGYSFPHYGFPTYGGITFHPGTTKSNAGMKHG

For the first series, the target named is NF-kB p65/p50 heterodimer (RelA/NFKB1) (Homo sapiens, UniProt Q04206;P19838 Q04206:1-551,P19838:1-433). Nature of the series: EMSA; competition vs 32P 113/114 probe. The note with it: protein: extract; tags: none; nuclear extract of LPS-stimulated THP-1 cells. From the text:
(§1) The EMSA assay was employed to characterize oligonucleotide decoys for the NF-κB transcription factor. […] Using the above modified oligonucleotides to compete for binding for the above-mentioned NF-κB family members, it was possible to compare the binding affinity of these oligonucleotides against the high affinity radiolabeled probe and each other. This assay has also enabled the design of a decoy which selectively binds particular members of the NF-κB family. By using increasing concentrations of various oligonucleotides, it was observed that, by deleting or changing targeted residues in the binding site, it was possible to specifically decrease the binding of the decoy molecule to p50/p50 homodimers, while retaining the affinity for p65/p50 and cRel/p50 heterodimers.
(§2) The NF-κB gel shift assays (EMSA) were performed as follows. A double-stranded oligonucleotide containing a consensus NF-κB binding site (5′ […] 3′) (SEQ ID NO: 78) was end-labeled with γ³²P-ATP using T4 Polynucleotide Kinase (Promega). Alternatively, a double-stranded ODN containing a consensus NF-κB binding site from the IL-6 promoter (5′ […] 3′) (SEQ ID NO: 94) was end-labeled with γ³²P-ATP using T4 Polynucleotide Kinase (Promega). One microgram of a nuclear extract prepared from LPS stimulated THP-1 cells (human monocyte cell line) was incubated with 35 fmol of radiolabeled probe in the presence or absence of competing unlabeled NF-κB double-stranded oligonucleotides (dsODN) or scrambled dsODN. The incubations were carried out at room temperature for 30 minutes in a 20 μl reaction volume composed of 10 mM Tris-HCl pH 8, 100 mM KCL, 5 mM MgCl2, 2 mM DTT, 10% Glycerol, 0.1% NP-40, 0.025% BSA and 1 μg Poly-dIdC. The reactions were loaded onto a 6% polyacrylamide gel, subjected to electrophoresis and dried. The dried gels were imaged and quantitated using a Typhoon 8600 PhosphorImager (Amersham) and ImageQuant software.
On the technique in general: In EMSA bound probe runs differently from free probe, usually more slowly.
For the molecule B1, the IC50 was 74 fold molar excess.
B2 registered an IC50 of 48 fold molar excess.
With B3, the IC50 worked out at 50 fold molar excess.
Same read-out and setting: the result for B4 reads 36 fold molar excess.
B5 gave an IC50 of 57.5 fold molar excess.
Still for that read-out and setting: as for B6, the figure is 5 fold molar excess; as for B7, 65 fold molar excess.
B8 showed an IC50 of 26 fold molar excess.
Turning to B9, the IC50 was 59 fold molar excess.
B10 yielded an IC50 of 24 fold molar excess.
B11 had an IC50 of 62.4 fold molar excess.
B12: the IC50 turned out to be 37.5 fold molar excess.
The molecule B13 yielded an IC50 of 5 fold molar excess.
In turn, B14 showed an IC50 of 21 fold molar excess.
The molecule B15 yielded an IC50 of 55 fold molar excess.
The same measure, in the same setting: as for B16, the figure is 54 fold molar excess.
Molecule B17 showed an IC50 of 5 fold molar excess.
B18 yielded an IC50 of 33 fold molar excess.
As for B19, the IC50 is 58 fold molar excess.
On to B20, for which the IC50 stood at 17 fold molar excess.
B21: the IC50 was found to be 39 fold molar excess.
As to B22, the IC50 amounted to 40 fold molar excess.
Turning to B23, the IC50 is 45 fold molar excess.
B24 returned an IC50 of 7.5 fold molar excess.
Turning to B25, the IC50 is 37 fold molar excess.
Molecule B26 had an IC50 of 85 fold molar excess.
Regarding B27, the IC50 was found to be 7.5 fold molar excess.
B28 had an IC50 of 87 fold molar excess.
For the molecule B29, the IC50 turned out to be 9 fold molar excess.
Turning to B30, the IC50 amounted to 93 fold molar excess.
For the molecule B31, the IC50 is 73 fold molar excess.
B32: the IC50 turned out to be 72.5 fold molar excess.
B33 came in with an IC50 of 92 fold molar excess.
Same read-out and setting: the result for B34 reads 45 fold molar excess; that for B35, 29 fold molar excess; that for B36, 8 fold molar excess.
B37 returned an IC50 of 7.5 fold molar excess.

The target of the next series is NF-kB p50/p50 homodimer (NFKB1) (Homo sapiens, UniProt P19838 P19838:1-433). Nature of the series: EMSA; competition vs 32P 113/114 probe. The note with it: protein: extract; tags: none; nuclear extract of LPS-stimulated THP-1 cells; chain copies: 2 (stated homodimer).
Chain of NF-kB p50/p50 homodimer (NFKB1) (P19838 1-433, one chain of several): as the sequence (P19838 1-433, chain 2 of 2) above
Source text: as §1, §2
In turn, B2 gave an IC50 of 52 fold molar excess.
In the case of B4, the IC50 turned out to be 69 fold molar excess.
In the case of B6, the IC50 came to 5 fold molar excess.
B8 yielded an IC50 of 17.5 fold molar excess.
B10 showed an IC50 of 27 fold molar excess.
For the molecule B11, the IC50 amounted to 96 fold molar excess.
Take B12: the IC50 came out at 37.5 fold molar excess.
Molecule B13 registered an IC50 of 5 fold molar excess.
Molecule B16 came in with an IC50 of 84 fold molar excess.
For the molecule B19, the IC50 came out at 92 fold molar excess.
With B23, the IC50 was 50 fold molar excess.
B25: the IC50 turned out to be 62.5 fold molar excess.
B27 came in with an IC50 of 40 fold molar excess.
Take B31: the IC50 is 82 fold molar excess.
As for B36, the IC50 came out at 10 fold molar excess.
On the same count and under the same terms, as for B37, the figure is 10 fold molar excess.
